Data as given in IntAct's records for PubMed 24929360.

B1: Catenin delta-1 (Mus musculus), P30999 (parent)
chain: MDDSEVESTASILASVKEQEAQFEKLTRALEEERRHVSAQLERVRVSPQDANSLMANGTLTRRHQNGRFVGDADLERQKFSDLKLNGPQDHNHLLYSTIPRMQEPGQIVETYTEEDPEGAMSVVSVETTDDGTTRRTETTVKKVVKTMTTRTVQPVPMGPDGLPVDASAVSNNYIQTLGRDFRKNGNGGPGPYVGQAGTATLPRNFHYPPDGYGRHYEDGYPGGSDNYGSLSRVTRIEERYRPSMEGYRAPSRQDVYGPQPQVRVGGSSVDLHRFHPEPYGLEDDQRSMGYDDLDYGMMSDYGTARRTGTPSDPRRRLRSYEDMIGEEVPPDQYYWAPLAQHERGSLASLDSLRKGMPPPSNWRQPELPEVIAMLGFRLDAVKSNAAAYLQHLCYRNDKVKTDVRKLKGIPILVGLLDHPKKEVHLGACGALKNISFGRDQDNKIAIKNCDGVPALVRLLRKARDMDLTEVITGTLWNLSSHDSIKMEIVDHALHALTDEVIIPHSGWEREPNEDCKPRHIEWESVLTNTAGCLRNVSSERSEARRKLRECDGLVDALIFIVQAEIGQKDSDSKLVENCVCLLRNLSYQVHREIPQAERYQEALPTVANSTGPHAASCFGAKKGKDEWFSRGKKPTEDPANDTVDFPKRTSPARGYELLFQPEVVRIYISLLKESKTPAILEASAGAIQNLCAGRWTYGRYIRSALRQEKALSAIAELLTSEHERVVKAASGALRNLAVDARNKELIGKHAIPNLVKNLPGGQQNSSWNFSEDTVVSILNTINEVIAENLEAAKKLRETQGIEKLVLINKSGNRSEKEVRAAALVLQTIWGYKELRKPLEKEGWKKSDFQVNLNNASRSQSSHSYDDSTLPLIDRNQKSDKKPDREEIPMSNMGSNTKSLDNNYSTLNERGDHNRTLDRSGDLGDMEPLKGAPLMQKI

Variants of: B1
Details: with cadh2_mouse Cdh2, P15116
Chain of cadh2_mouse Cdh2, P15116 (P15116 whole entry): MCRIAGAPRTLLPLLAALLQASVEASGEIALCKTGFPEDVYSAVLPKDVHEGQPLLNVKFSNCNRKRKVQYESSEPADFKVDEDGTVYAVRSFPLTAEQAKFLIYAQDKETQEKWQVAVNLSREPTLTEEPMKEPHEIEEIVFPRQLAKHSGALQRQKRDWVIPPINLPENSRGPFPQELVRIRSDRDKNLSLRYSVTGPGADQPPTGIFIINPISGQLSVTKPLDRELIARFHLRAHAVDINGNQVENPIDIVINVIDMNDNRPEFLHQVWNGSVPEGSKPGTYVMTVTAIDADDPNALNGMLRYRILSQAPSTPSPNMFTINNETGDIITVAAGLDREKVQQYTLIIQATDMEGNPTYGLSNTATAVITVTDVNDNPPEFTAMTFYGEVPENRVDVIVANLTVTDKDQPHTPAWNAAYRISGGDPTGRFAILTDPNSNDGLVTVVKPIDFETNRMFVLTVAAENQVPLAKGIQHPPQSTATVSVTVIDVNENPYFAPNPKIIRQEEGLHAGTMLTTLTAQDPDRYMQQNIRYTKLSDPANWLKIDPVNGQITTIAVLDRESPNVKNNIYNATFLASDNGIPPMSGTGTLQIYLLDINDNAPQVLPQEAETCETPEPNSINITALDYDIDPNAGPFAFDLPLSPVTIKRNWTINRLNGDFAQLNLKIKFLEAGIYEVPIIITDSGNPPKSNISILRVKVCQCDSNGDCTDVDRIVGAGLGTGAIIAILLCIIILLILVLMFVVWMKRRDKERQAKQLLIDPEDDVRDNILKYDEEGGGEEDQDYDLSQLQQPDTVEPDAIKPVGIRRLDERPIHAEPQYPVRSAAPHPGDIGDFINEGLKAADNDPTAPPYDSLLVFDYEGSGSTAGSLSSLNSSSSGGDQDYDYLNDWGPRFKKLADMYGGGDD
With T310A the “effect of a mutation on the interaction” value was “increasing interaction strength”.
